Data published in US20230270824A1, “INTERFERON-BASED CANCER TREATMENT METHOD AND PHARMACEUTICAL COMPOSITION” (XIAMEN AMOYTOP BIOTECH CO., LTD., priority 2019, published 2023).

How the values were obtained:
[1] = system: transplanted colorectal cancer CT26; test: Interferon combined with gemcitabine, transplanted colorectal cancer CT26 in mice (Example 7); assay type: in vivo, BALB/c mice; settings: 110 days observation
Method: (§1) In this example, a comparative study on the efficacy of PEG-mIFN-α4 intermittent administration (once every 48 hours for three consecutive times, then drug withdrawal for 144 hours; for 11 rounds), PEG-mIFN-α4 continuous administration (once every 48 hours for 55 consecutive times), PEG-mIFN-α4 in combination with gemcitabine (PEG-mIFN-α4: once every 48 hours for three consecutive times, then drug withdrawal for 240 hours, 8 rounds; gemcitabine: once a week) on transplanted colorectal cancer CT26 in mice was performed.
The anticancer agent is Gemcitabine (Jiangsu HAOSEN Pharmaceutical).
(§2) On the day when the tumor was inoculated, they were randomly divided into PEG-mIFN-α4 continuous administration group (N=24, female 12, male 12), PEG-mIFN-α4 intermittent administration group (N=24, female 12, male 12), the normal saline control group (N=24, female 12, male 12), the gemcitabine only group (N=24, female 12, male 12), and PEG-mIFN-α4 combined with gemcitabine group (N=24, female 12, male 12).
Gemcitabine was injected intraperitoneally, 60 mg/kg. […] For the PEG-mIFN-α4 intermittent administration group, PEG-mIFN-α4 was administered once every 48 hours for three consecutive times, then drug withdrawal for 144 hours; for 11 rounds. For the PEG-mIFN-α4 continuous administration group, PEG-mIFN-α4 was administered once every 48 hours. For the PEG-mIFN-α4 combined with gemcitabine group, PEG-mIFN-α4 was administered once every 48 hours for three consecutive times, then drug withdrawal for 240 hours; for 8 rounds; and gemcitabine was administered once a week. For the gemcitabine only group, gemcitabine was administered once a week. For the saline control group, equal volume of saline was administered.
Survival analysis was performed for all groups to compare the differences between groups.

[2] = system: transplanted melanoma B16; test: Interferon combined with gemcitabine, transplanted melanoma B16 in mice (Example 8); assay type: in vivo, C57BL/6N mice
Method: as §1, with “for 3” for “for three”, “for 240” for “for 144”, “for 4” for “for 11”, “for 24” for “for 55”, “hours, 4” for “hours, 8”, “transplanted melanoma B16” for “transplanted colorectal cancer CT26”
as §2, with “(N=28,” for “(N=24,”, “14,” for “12,”, “14),” for “12),”, “14).” for “12).”
For the PEG-mIFN-α4 intermittent administration group, PEG-mIFN-α4 was administered once every 48 hours for 3 consecutive times, then drug withdrawal for 240 hours; for 4 rounds. For the PEG-mIFN-α4 continuous administration group, PEG-mIFN-α4 was administered once every 48 hours. For the PEG-mIFN-α4 combined with gemcitabine group, PEG-mIFN-α4 was administered once every 48 hours for 3 consecutive times, then drug withdrawal for 240 hours; for 4 rounds; and gemcitabine was administered once a week. For the gemcitabine only group, gemcitabine was administered once a week. For the saline control group, equal volume of saline was administered. Gemcitabine was injected intraperitoneally, 60 mg/kg.
SAS9.4 software was used for comparing the difference in mortality, and the statistical tests were all two-sided tests.

B1: PEG-mIFN-α4: deglycosylated recombinant mouse interferon α4 modified with 40 kD Y-type polyethylene glycol (YPEG-NHS); SEQ ID NO: 6 (protein)
chain: CDLPHTYNLGNKRALTVLEEMRRLPPLSCLKDRKDFGFPLEKVDNQQIQKAQAILVLRDLTQQILNLFTSKDLSATWNATLLDSFCNDLHQQLNDLKACVMQEPPLTQEDSLLAVRTYFHRITVYLRKKKHSLCAWEVIRAEVWRALSSSTNLLARLSEEKE
modifications: 40 kD Y-type PEG; deglycosylated; amino acid sequence of peginterferon murine 4
B1 was tested, and the “Mean survival period (days post tumor inoculation)” value ([1]; continuous administration: once every 48 hours, 55 times) was 53.5 days, the “Mean survival period (days post tumor inoculation)” value ([1]; intermittent administration: 1 μg/mouse every 48 h x3, withdrawal 144 h, 11 rounds) was 89.0 days and the Mortality ([2]; continuous administration (once every 48 hours), 46 days after tumor inoculation) was 100%. It also gave a Mortality ([2]; continuous administration (once every 48 hours, 24 times), Table 7, day not printed for this cell (footnotes: Day 46 / Day 48)) of 100%, a Mortality ([2]; intermittent administration (every 48 h x3, withdrawal 240 h, 4 rounds), 46 days after tumor inoculation) of 39.3% and a Mortality ([2]; intermittent administration (every 48 h x3, withdrawal 240 h, 4 rounds), 48 days after tumor inoculation) of 46.4%.
